Patent EP4682169A1 (Gracell Biotechnologies (Shanghai) Co., Ltd., dated 2026)
Changes are numbered by the printed parent chain. Where “and” joins values, the source holds several entries; their conditions need not be identical. Equal entries are not always repeated.

B1: 1-hIgG1Fc (Fc fusion)
chain: EVQLVGSGGGLVQPGGSLRLSCAASGSILNLMTTGWYRQAPGKQRDLVATITFGGTTNYADSVKGRFTISRDKSKNTAYLQMDNLKPEDTAVYFCYADVIVGFQDRRVAWDAGTQVTVSS
notes: VHH-hIgG1Fc recombinant antibody; also called 1-hlgG1Fc; VHH-hIgG1Fc recombinant antibody of clone 1; not shown: human IgG1 Fc (hIgG1Fc)
B2: 10-hIgG1Fc (Fc fusion)
chain: QVQLAESGGGLVQPGGSLRLSCAASGNILSINYMGWYRQAPGKERELVATITRGGTTNYQGDLKGRFIISGDNTKDTVYLQMNNLQPEDTAVYYCYFRINFGILGGLRDYWGQGTQVTVSS
notes: VHH-hIgG1Fc recombinant antibody; also called 10-hlgG1Fc; VHH-hIgG1Fc recombinant antibody of clone 10; not shown: human IgG1 Fc (hIgG1Fc)
B3: 8-hIgG1Fc (Fc fusion)
chain: QVQLVESGGGLVQPGGSLRLSCAASGSIFGLNFMGWWRQAPGSQRELVAIATSGGSIQYGDSVKGRFTISRDNAKNTVYLQMASLKPEDTAVYYCNVHTYDFLGRDYWGQGTQVTVSL
notes: VHH-hIgG1Fc recombinant antibody; also called 8-hlgG1 Fc; VHH-hIgG1Fc recombinant antibody of clone 8; not shown: human IgG1 Fc (hIgG1Fc)
B4: 5-hIgG1Fc (Fc fusion)
chain: QVQLVESGGGLVQTGGSLRLSCAASDSTFSSYIMGWFRQAPGKEREFVAGITWSGGIKDYADSVKGRFTIARDNAKNTVYLQMNSLKPEDAAIYYCAANAIQLTRRSGDYAYWGQGTQVTVSS
notes: VHH-hIgG1Fc recombinant antibody; also called 5-hlgG1Fc; VHH-hIgG1Fc recombinant antibody of clone 5; not shown: human IgG1 Fc (hIgG1Fc)
B5: VHH clone 3 (phage-displayed) (VHH)
VHH: QVQLVESGGGLVQAGDSVRLSCAASGQTLSNYNVAWFRQAPGKEREFVAGATWSGRITNYSDSVRGRFTISRDNAKNTVYLQMNSLGPGDTAVYHCAANSFQLGDKPGDYHYWGQGTQVTVSS
notes: Tested as phage supernatant, detected with PE anti-M13; also called Clone ID 3
B6: VHH clone 11 (phage-displayed) (VHH)
VHH: QVQLVESGGGLVQPGGSLRLSCAASGNILSINYMGWYRQAPGKERELVAIITRGGSTTYAPSLKGRFTISGDNAKDTVYLQMNSLQPEDTAVYYCNFRINFGILGGLRDYWGQGTQVTVSS
notes: Tested as phage supernatant, detected with PE anti-M13; also called Clone ID 11
B7: VHH clone 14 (phage-displayed) (VHH)
VHH: EVQLVESGGGLVQPGGSLRLSCAASGSLFSIITMGWYRQAPGKQRELVATVTRGGRLNYGDSVKGRFTISSGNVENTLDLQMNNLKPEDTAVYYCNAILESGNFWGRGTQVTVSS
notes: Tested as phage supernatant, detected with PE anti-M13; also called Clone ID 14
B8: VHH clone 9 (phage-displayed) (VHH)
VHH: B3 chain with Q1E, S84N
notes: Tested as phage supernatant, detected with PE anti-M13; also called Clone ID 9
B9: VHH clone 4 (phage-displayed) (VHH)
VHH: EVQLVESGGGLVQPGGSLRLSCAASGQFFSLNYLAWYRQAPGSQRELIALVSSGGSTQYGDSVKGRFTISRDNAKNTVYLQMASLKPEDTAVYYCNLHTYDFLGRDYWGQGTQVTISS
notes: Tested as phage supernatant, detected with PE anti-M13; also called Clone ID 4
B10: 2-mIgG2aFc (Fc fusion)
chain: B2 chain with Q1E, A5V, T56S, D62N
notes: Fusion antibody anti-Claudin18.2 VHH-mIgG2aFc; also called 2-mIgG Fc; 2-mlgG2a Fc; not shown: mouse IgG2a Fc (mIgG2aFc)
B11: 18-mIgG2aFc (Fc fusion)
chain: QVQLVESGGGLVQPGGSLRLSCAASGSILNLMTTGWYRQAPGKQRDLVATITFGGTTNYADAVKGRFTISRDNAKNTVYLQMNNLEPEDTAVYFCYLDYIFGFGDRRVAWDQGTQVTVSS
notes: Fusion antibody anti-Claudin18.2 VHH-mIgG2aFc; not shown: mouse IgG2a Fc (mIgG2aFc)
B12: 5-mIgG2aFc (Fc fusion)
chain: B4 chain
notes: Fusion antibody anti-Claudin18.2 VHH-mIgG2aFc; also called 5-mIgG Fc; 5-mlgG2a Fc; not shown: mouse IgG2a Fc (mIgG2aFc)
B13: 5H1-mIgG Fc (Fc fusion)
chain: B4 chain with F37V, E44G, R45L, F47W
notes: Subclass printed only as mIgG Fc for this one; also called 5H1-mlgG Fc; H1-mlgG Fc; not shown: mouse IgG Fc (printed mIgG Fc)
B14: 5H2-mIgG2a Fc (Fc fusion)
chain: B4 chain with T14P, E44G, R45L, A75S, V79L, K87R, P88A, I93V, Q118L
notes: also called 5H2-mIgG Fc; 5H2-mlgG2a Fc; not shown: mouse IgG2a Fc

The binders below were run against T1, Claudin 18.2 VLP (UniProt P56856 1-261) (assay: ELISA, coated antigen 200 ng/well).
T1 construct: Antigen coated on ELISA plates, 200 ng/well; source and construct not described; also called Claudin18.2-VLP protein; Claudin18.2 VLP antigen

Binder | EC50
B1 | 1.46 µg/mL and 18.3 nM
B2 | 0.4 µg/mL and 4.96 nM
B3 | 0.61 µg/mL and 7.66 nM
B4 | 0.55 µg/mL and 6.87 nM

These binders were tested against T2, Claudin18.2 recombinant protein (His tag) (UniProt P56856-2 1-261, limits assumed) (assay: ELISA, coated antigen 200 ng/well).
T2 construct: also called Claudin18.2-his antigen; not shown: His tag

Binder | EC50
B1 | 15.7 µg/mL and 196 nM
B2 | 4 µg/mL and 50 nM
B4 | 0.81 µg/mL and 10.1 nM

These binders were tested against T3, human Claudin18.2 expressed on cells (human, UniProt P56856-2 1-261) (assay: phage flow cytometry, phage supernatant, PE anti-M13).
T3 construct: whole, on cells; also called CLDN18.2

Binder | binding result
B5 | binds
B6 | binds
B7 | binds
B8 | binds
B9 | binds

What follows are binders tested against T1, Claudin 18.2 VLP (assay: ELISA, coated antigen 200 ng/well; antibody 0.37 ug/mL).

Binder | absorbance at 450 nm
B1 | 0.585
B2 | 1.46
B3 | 0.931
B4 | 0.942

These binders were tested against T2, Claudin18.2 recombinant protein (His …) in the same assay as above.

Binder | absorbance at 450 nm
B1 | 0.216
B2 | 0.476
B4 | 1.41

These binders were tested against T1, Claudin 18.2 VLP (assay: ELISA, coated antigen 200 ng/well; antibody 0.014 ug/mL).

Binder | absorbance at 450 nm
B1 | 0.282
B2 | 0.329
B3 | 0.326
B4 | 0.274

What follows are binders tested against T2, Claudin18.2 recombinant protein (His …) in the same assay as above.

Binder | absorbance at 450 nm
B1 | 0.066
B2 | 0.063
B4 | 0.108

The binders below were run against T1, Claudin 18.2 VLP (assay: ELISA, coated antigen 200 ng/well; antibody 0.041 ug/mL).

Binder | absorbance at 450 nm
B1 | 0.271
B2 | 0.355
B3 | 0.337
B4 | 0.275

Each binder was assayed against T2, Claudin18.2 recombinant protein (His …) in the same assay as above.

Binder | absorbance at 450 nm
B1 | 0.07
B2 | 0.084
B4 | 0.207

What follows are binders tested against T1, Claudin 18.2 VLP (assay: ELISA, coated antigen 200 ng/well; antibody 0.123 ug/mL).

Binder | absorbance at 450 nm
B1 | 0.293
B2 | 0.568
B3 | 0.474
B4 | 0.39

Each binder was assayed against T2, Claudin18.2 recombinant protein (His …) in the same assay as above.

Binder | absorbance at 450 nm
B1 | 0.1
B2 | 0.172
B4 | 0.463

The binders below were run against T1, Claudin 18.2 VLP (assay: ELISA, coated antigen 200 ng/well; antibody 1.111 ug/mL).

Binder | absorbance at 450 nm
B1 | 1.35
B2 | 2.14
B3 | 1.87
B4 | 1.86

These binders were tested against T2, Claudin18.2 recombinant protein (His …) in the same assay as above.

Binder | absorbance at 450 nm
B1 | 0.473
B2 | 1.06
B4 | 2.53

These binders were tested against T1, Claudin 18.2 VLP (assay: ELISA, coated antigen 200 ng/well; antibody 3.333 ug/mL).

Binder | absorbance at 450 nm
B1 | 2.13
B2 | 2.51
B3 | 2.1
B4 | 2.14

Each binder was assayed against T2, Claudin18.2 recombinant protein (His …) in the same assay as above.

Binder | absorbance at 450 nm
B1 | 1.08
B2 | 2.15
B4 | 3.5

These binders were tested against T3, human Claudin18.2 expressed on cells (assay: flow cytometry on 293FT CLDN18.2-Luc cells, APC anti-mouse IgG Fc).

Binder | EC50 [nM]
B10 | 0.02
B11 | 0.06
B12 | 0.013

Each binder was assayed against T1, Claudin 18.2 VLP (assay: ELISA, coated antigen 200 ng/well; antibody 100 ug/mL (so in the source)).

Binder | absorbance at 450 nm
B1 | 2.66
B2 | 2.62
B3 | 2.46
B4 | 2.35

These binders were tested against T2, Claudin18.2 recombinant protein (His …) in the same assay as above.

Binder | absorbance at 450 nm
B1 | 2.36
B2 | 3.38

Each binder was assayed against T1, Claudin 18.2 VLP (assay: ELISA, coated antigen 200 ng/well; antibody 0 ug/mL (blank well, background)).

Binder | absorbance at 450 nm
B1 | 0.275
B2 | 0.311
B3 | 0.289
B4 | 0.247

The binders below were run against T2, Claudin18.2 recombinant protein (His …) in the same assay as above.

Binder | absorbance at 450 nm
B1 | 0.06
B2 | 0.054
B4 | 0.057

These binders were tested against T1, Claudin 18.2 VLP (assay: ELISA, coated antigen; lower end, tied by Table 3 to 10-hIgG1Fc on the VLP (4.96 nM)).

Binder | EC50 [nM]
B2 | 4

The binders below were run against T4, Human Claudin-18.2 protein (human, UniProt P56856-2 1-261, limits assumed) (assay: SPR (Biacore 8K), antibody captured on Protein A, Claudin-18.2 protein as analyte).
T4 construct: Soluble analyte injected over captured antibodies in SPR

Binder | Kd [nM] | koff [s⁻¹] | kon [M⁻¹ s⁻¹]
B10 | 1.1 | 0.00052 | 471000
B12 | 3.02 | 0.000373 | 123000
B13 | 7.21 | 0.000552 | 76600
B14 | 3.32 | 0.000417 | 126000

What follows are binders tested against T2, Claudin18.2 recombinant protein (His …) (assay: ELISA, coated antigen; upper end, tied by Table 3 to 1-hIgG1Fc on Claudin 18.2-his (196 nM)).

Binder | EC50 [nM]
B1 | 200
